Substitutions are numbered along the chain they refer to. Numbers in names are those of the source.

Data set [1] concerns the target Cep63 (424–541)•Cep152 (1205–1295) heterotetrameric complex (human) (UniProt O94986). The data set can be described thus: AUC; sedimentation equilibrium, 4 °C, pH 5.5 (150 mM NaCl, 50 mM citric acid/sodium citrate, 1 mM TCEP, 5% glycerol); 12.6, 25 and 55 µM fitted globally; reversible tetramer–octamer–hexadecamer model (heterotetramer to octamer, octamer to hexadecamer).

The next data set deals with T1, Cep152 (1205–1295) (human, UniProt O94986-3 1205-1295).
T1 chain: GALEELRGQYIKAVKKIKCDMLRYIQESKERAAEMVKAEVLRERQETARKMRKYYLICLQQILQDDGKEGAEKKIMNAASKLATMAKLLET
The data set can be described thus: heterotetramer formation (2:2), iSCAMS; printed as <~60 nM.

Data set [2] concerns the molecule itself. In words: SEC-MALS; Cep63 (440–490), Wyatt SEC-MALS system.
Data set [3] concerns the molecule itself. In words: SEC; SEC elution of Cep63 (440–490) triple mutants (Supplementary Fig. 3d).
The target of data set [4] is His-Cep63 (424–541) (human). In words: AUC; sedimentation velocity, 50,000 rpm, 4 °C, 150 mM NaCl, 20 mM Tris pH 8.0, 0.5 mM TCEP, 5% glycerol.

In data set [1], “Cep63 (424–541)•Cep152 (1205–1295) heterotetrameric complex (from UniProt O94986-3 1205-1295)” gave a Kd, octamer–octamer interaction (octamer–hexadecamer step) of 2200 nM; a Kd, tetramer–tetramer interaction (tetramer–octamer step) of 370000 nM; a k16 (dissociation constant of the hexadecamer into four tetramers, c4^4/c16) of 3e-13 M^3; a stoichiometry N (heterotetramers in the oligomer) of 4.

B1: His-Cep63 (424–541) (domain or fragment)
chain: LHQRDITIASTKGSSSDMEKRLRAEMQKAEDKAVEHKEILDQLESLKLENRHLSEMVMKLELGLHECSLPVSPLGSIATRFLEEEELRSHHILERLDAHIEELKRESEKTVRQFTALK
On to B1, for which the equilibrium dissociation constant (Kd) in the data set with Cep152 (1205–1295) is below 60 nM.

B2: Cep63 (440–490) (domain or fragment, human, UniProt Q96MT8 440-490, looked up)
chain: DMEKRLRAEMQKAEDKAVEHKEILDQLESLKLENRHLSEMVMKLELGLHEA
notes: Cep63, human, residues 440–490; The structure was phased by SAD; also called Cep63 (440–490) WT; Cep63 (440–490) dimer; source: E. coli BL21(DE3) RIL, purified (Ni-NTA, TEV digestion, Sephacryl S-100 HR SEC); selenomethionine-substituted protein from E. coli B834(DE3); not shown: (His)6, N-terminal, cleaved; MBP, N-terminal, cleaved
Turning to B2, the “stoichiometry N” value in data set [2] was 2.

B3: Cep63 (440–490) (L445A, A456K, L463K) (domain or fragment, human, UniProt Q96MT8 440-490, looked up)
chain: B2 chain with L6A, A17K, L24K
notes: Cep63, human, residues 440–490 with L445A, A456K, L463K; also called AKK; pKM6657; source: E. coli BL21(DE3) RIL, purified (Ni-NTA, TEV digestion, Sephacryl S-100 HR SEC); not shown: (His)6, N-terminal, cleaved; MBP, N-terminal, cleaved
Consider B3, for which the binding result in data set [3] is “binds”.

B4: Cep152 (1205–1295) (domain or fragment)
chain: T1 chain
As for B4, the stoichiometry N (Cep63:Cep152 ratio (2:2)) in data set [4] was found to be 1.

The values are drawn from PMC10336005, “Architectural basis for cylindrical self-assembly governing Plk4-mediated centriole duplication in human cells” (Communications Biology, 2023).
